US20250352581A1 (NEOMICS PHARMACEUTIALS, published 2025)

Molecular target: PD-L1 expressed on target cells (K562-PDL1, A375-PDL1, A549-HLA-A2/PDL1) (UniProt Q9NZQ7 19-290, limits assumed)
Experiment: cell-based or functional assay

Sequence of PD-L1 expressed on target cells (K562-PDL1, A375-PDL1, A549-HLA-A2/PDL1) (Q9NZQ7 19-290 limits assumed): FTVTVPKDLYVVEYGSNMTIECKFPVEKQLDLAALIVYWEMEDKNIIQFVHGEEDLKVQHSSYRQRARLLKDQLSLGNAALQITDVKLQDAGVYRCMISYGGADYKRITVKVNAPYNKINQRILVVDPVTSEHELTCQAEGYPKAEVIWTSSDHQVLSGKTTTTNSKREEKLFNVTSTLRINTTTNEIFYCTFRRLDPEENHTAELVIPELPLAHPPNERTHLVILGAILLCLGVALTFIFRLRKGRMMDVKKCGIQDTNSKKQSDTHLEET

T cell expansion (GSK-794 and 2007 TCR T cells on A375-PDL1 cells): ≥ 60 fold
B1: PD1-28-TNR9(41BBt) PD-1 chimeric co-stimulatory receptor (PD-1 extracellular domain_CD28 stalk, transmembrane and signaling domain_truncated 4-1BB signaling … (receptor)
chain: FLDSPDRPWNPPTFSPALLVVTEGDNATFTCSFSNTSESFVLNWYRMSPSNQTDKLAAFPEDRSQPGQDCRFRVTQLPNGRDFHMSVVRARRNDSGTYLCGAISLAPKAQIKESLRAELRVTERRAEVPTAHPSPSPRPALFPGPSKPFWVLVVVGGVLACYSLLVTVAFIIFWVRSKRSRLLHSDYMNMTPRRPGPTRKHYQPYAPPRDFAAYRSQPFMRPVQTTQEEDGCSCRFPEEEEGGCEL
